Results on six molecules are retold here after US20190077860A1 (EISAI R AND D MANAGEMENT, published 2019).

First the molecules themselves.
T1: human EphB1 extracellular region-SEAP-His protein (human, UniProt P54762 18-540)
T1 construct: extracellular domain; also called hEphB1-SEAP-His
T1 sequence (looked up): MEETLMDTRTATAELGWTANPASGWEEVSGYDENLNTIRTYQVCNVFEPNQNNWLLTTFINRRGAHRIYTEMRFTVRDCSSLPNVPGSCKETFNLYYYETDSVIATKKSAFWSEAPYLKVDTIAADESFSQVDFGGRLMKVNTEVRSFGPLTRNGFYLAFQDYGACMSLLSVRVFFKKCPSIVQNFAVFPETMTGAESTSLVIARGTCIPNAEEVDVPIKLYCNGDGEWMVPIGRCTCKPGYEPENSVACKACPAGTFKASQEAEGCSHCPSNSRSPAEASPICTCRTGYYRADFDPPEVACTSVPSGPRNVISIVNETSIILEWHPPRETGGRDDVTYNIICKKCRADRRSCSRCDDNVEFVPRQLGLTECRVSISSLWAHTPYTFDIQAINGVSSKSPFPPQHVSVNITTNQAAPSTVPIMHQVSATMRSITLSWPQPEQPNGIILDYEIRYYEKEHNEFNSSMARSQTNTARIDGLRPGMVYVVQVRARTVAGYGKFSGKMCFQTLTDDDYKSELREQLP

B1: humanized antibody No. 94 (antibody, human IgG1, kappa)
heavy: QVQLVQSGSELKKPGASVKVSCKASGYTFTDYSMHWVRQAPGQGLKWMGWINTETGEPTYAQGFTGRFVFSLDTSVSTAYLQISSLKAEDTAVYYCARIPLYYYGSRYWYFDVWGQGTTVTVSSASTKGPSVFPLAPSSKSTSGGTAALGCLVKDYFPEPVTVSWNSGALTSGVHTFPAVLQSSGLYSLSSVVTVPSSSLGTQTYICNVNHKPSNTKVDKRVEPKSCDKTHTCPPCPAPPAAAPSVFLFPPKPKDTLMISRTPEVTCVVVDVSHEDPEVQFNWYVDGVEVHNAKTKPREEQFNSTFRVVSVLTVVHQDWLNGKEYKCKVSNKGLPAPIEKTISKTKGQPREPQVYTLPPSREEMTKNQVSLTCLVKGFYPSDIAVEWESNGQPENNYKTTPPMLDSDGSFFLYSKLTVDKSRWQQGNVFSCSVMHEALHNHYTQKSLSLSPG
light: EIVMTQSPATLSVSPGERATLSCRASENIYRNLAWYQQKPGQSPRLLIYAATNLADGIPARFSGSGSGTEYTLTISSLQSEDFAVYYCQHFWGTPWTFGQGTKVEIKRTVAAPSVFIFPPSDEQLKSGTASVVCLLNNFYPREAKVQWKVDNALQSGNSQESVTEQDSKDSTYSLSSTLTLSKADYEKHKVYACEVTHQGLSSPVTKSFNRGEC
notes: human Ig kappa; also called L2-4/HA2
B2: humanized antibody No. 73 (antibody, human IgG1, kappa)
heavy: B1 heavy with V2I, Q62D, G63D, T65K
light: B1 light
notes: human Ig kappa; also called L2-4/HK4
B3: humanized antibody No. 93 (antibody, human IgG1, kappa)
heavy: B1 heavy with K46E
light: B1 light
notes: human Ig kappa; also called L2-4/HA1
B4: humanized antibody No. 71 (antibody, human IgG1, kappa)
heavy: B1 heavy with V2I
light: B1 light
notes: human Ig kappa; also called L2-4/HA4
B5: humanized antibody No. 96 (antibody, human IgG1, kappa)
heavy: B1 heavy with Q62D, G63D, T65K
light: B1 light
notes: human Ig kappa; also called L2-4/HK2
B6: humanized antibody No. 95 (antibody, human IgG1, kappa)
heavy: B1 heavy with K46E, Q62D, G63D, T65K
light: B1 light
notes: human Ig kappa; also called L2-4/HK1

Substitutions are numbered along the chain they refer to.

One assay deals with T1, human EphB1 extracellular …. The experiment in a line: ELISA.
B1: the “A450 as % of hEphA4-SEAP-His” value was 6.7%.

Take B2: the “A450 as % of hEphA4-SEAP-His” value turned out to be 5.7%.

B3: the “A450 as % of hEphA4-SEAP-His” value came to 5%.

Take B4: the “A450 as % of hEphA4-SEAP-His” value was found to be 5.4%.

Turning to B5, the “A450 as % of hEphA4-SEAP-His” value amounted to 5.6%.

For B6, the “A450 as % of hEphA4-SEAP-His” value is 4.6%.

A further assay deals with T2, human EphA4 extracellular region-SEAP-His protein (human, UniProt P54764 20-547).
T2 construct: also called hEphA4-SEAP-His
T2 sequence (P54764 20-547): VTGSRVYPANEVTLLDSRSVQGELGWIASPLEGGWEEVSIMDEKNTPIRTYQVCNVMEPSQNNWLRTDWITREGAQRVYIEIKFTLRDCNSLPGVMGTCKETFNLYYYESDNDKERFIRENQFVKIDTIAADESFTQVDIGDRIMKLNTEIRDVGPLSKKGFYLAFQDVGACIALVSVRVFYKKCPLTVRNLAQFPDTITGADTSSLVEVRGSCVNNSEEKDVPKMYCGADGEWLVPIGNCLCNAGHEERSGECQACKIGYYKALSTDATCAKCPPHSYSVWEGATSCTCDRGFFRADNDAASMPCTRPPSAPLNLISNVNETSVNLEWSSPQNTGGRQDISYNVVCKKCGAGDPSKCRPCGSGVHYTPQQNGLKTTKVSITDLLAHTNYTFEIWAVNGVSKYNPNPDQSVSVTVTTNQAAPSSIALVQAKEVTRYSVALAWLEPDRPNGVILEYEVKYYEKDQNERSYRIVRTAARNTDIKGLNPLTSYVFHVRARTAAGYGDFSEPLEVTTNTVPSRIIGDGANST
The experiment in a line: ELISA. For orientation: An ELISA detects its analyte on a solid surface through an enzyme-linked reagent.
Consider B1, for which the “A450 as % of hEphA4-SEAP-His” value stood at 100%.

B2: the “A450 as % of hEphA4-SEAP-His” value worked out at 100%.

Consider B3, for which the “A450 as % of hEphA4-SEAP-His” value was 100%.

In the case of B4, the “A450 as % of hEphA4-SEAP-His” value is 100%.

As for B5, the “A450 as % of hEphA4-SEAP-His” value worked out at 100%.

Turning to B6, the “A450 as % of hEphA4-SEAP-His” value was found to be 100%.

The next assay deals with T2, human EphA4 extracellular …. The experiment in a line: SPR, Ab captured. The method in brief: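 Affinity (KD=kd/ka) obtained by fitting SPR curves to a 1:1 model. Analyte was human EphA4 extracellular region-SEAP-His, injected sequentially from 0.6 to 50 nM in HBS-EP (120 s on, 900 s off), onto humanized antibodies on protein A or antibody A on anti-mouse IgG1 surfaces, capture level about 30–60 RU.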
On the technique in general: Surface plasmon resonance follows binding to a sensor surface in real time, without labels.
Consider B1, for which the dissociation constant (Kd) (usually the free concentration of one partner at which half of the binding sites on the other are occupied at equilibrium, for simple one-to-one binding) is 0.95 nM; the koff – broadly, the first-order rate constant of dissociation – is 0.00024 s⁻¹; the association rate constant (kon) (usually a measure of how fast the partners come together) was found to be 260000 M⁻¹ s⁻¹.

Regarding B2, the Kd amounted to 0.93 nM, the off-rate constant (koff) turned out to be 0.00027 s⁻¹ and the on-rate (kon) was found to be 290000 M⁻¹ s⁻¹.

As to B3, the affinity, expressed as Kd, was 0.77 nM; the koff came out at 0.00024 s⁻¹; the kon is 310000 M⁻¹ s⁻¹.

In turn, B4 displayed a Kd of 0.82 nM, a koff of 0.00023 s⁻¹ and an on-rate constant (kon) of 280000 M⁻¹ s⁻¹.

For B5, the dissociation constant (Kd) was 1.1 nM, the off-rate constant (koff) was found to be 0.00031 s⁻¹ and the kon stood at 270000 M⁻¹ s⁻¹.

On to B6, for which binding was characterised by a dissociation constant (Kd) of 1 nM, the koff came to 0.00031 s⁻¹ and the on-rate (kon) is 300000 M⁻¹ s⁻¹.

The next assay has the same target. The assay is described as follows: competition ELISA, competitor human Ephrin A5-Fc. The method in brief:
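Ligand binding to captured receptor measured as A450 after HRP-streptavidin/TMBZ development and acid stop. Receptor fusion (10 nM final) was immobilised via anti-alkaline phosphatase antibody; biotinylated Ephrin A5-Fc (0.7 nM final) added together with antibody titrations from 0 to 3000 nM, 1 h, room temperature.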
On to B1, for which the IC50 – broadly, the concentration that inhibits the measured activity by half – is 2.7 nM.

Take B2: the 50% inhibitory concentration (IC50) stood at 2.4 nM.

For B3, the IC50 was 2.5 nM.

Consider B4, for which the IC50 was determined as 2.5 nM.

B5 showed a concentration for half-maximal inhibition (IC50) of 3.7 nM.

B6: the IC50 worked out at 3.1 nM.
